Measured values taken from paper PMC5052687.

B1: MCvar1 PfEMP1 CIDRα2.8 domain (residues 576-745, mutant [Plasmodium falciparum] / human CD36 ectodomain (residues 35-439) with C-terminal BAP tag, biotinylated [modified: biotin on the BAP tag (in vitro, BirA ligase); biotin … (parent)
chain 1: EDKIMSYNAFFWMWVHDMLIDSIKWRDEHGRCINKDKGKTCIKGCNKKCISFQKWVEQKKTEWGKIKDHFRKQKDIPKDWTHDDFLQTLLMKDLLLEIIQDTYGDANEIKRIEALLEQAGVGGIDFAALAGLYTKGFVAEKDTTIDKLLQHEQKEADKCLKTHTDDTCPP
chain 2: QKTIKKQVVLEEGTIAFKNWVKTGTEVYRQFWIFDVQNPQEVMMNSSNIQVKQRGPYTYRVRFLAKENVTQDAEDNTVSFLQPNGAIFEPSLSVGTEADNFTVLNLAVAAASHIYQNQFVQMILNSLINKSKSSMFQVRTLRELLWGYRDPFLSLVPYPVTTTVGLFYPYNNTADGVYKVFNGKDNISKVAIIDTYKGKRNLSYWESHCDMINGTDAASFPPFVEKSQVLQFFSSDICRSIYAVFESDVNLKGIPVYRFVLPSKAFASPVENPDNYCFCTEKIISKNCTSYGVLDISKCKEGRPVYISLPHFLYASPDVSEPIDGLNPNEEEHRTYLDIEPITGFTLQFAKRLQVNLLVKPSEKIQVLKNLKRNYIVPILWLNETGTIGDEKANMFRSQVTGKIN

Variants of: B1
Test: SPR
Settings: with human CD36 ectodomain (residues 35-439) with C-terminal BAP tag, plateau of the top sensorgram (highest analyte concentration of the series), concentrations not given, parent: 62, read off a plot

Variant | response
chain 1 Q73A | 27 RU
chain 1 E97A | 40 RU
